Patent US20230348616A1 (MIE UNIVERSITY, published 2023)
Read-outs that look alike come from different tables or passages of the source.

Assays:
[1] = target: T1, HLA-A*0201/β2-microglobulin/NY-ESO peptide complex (human, biotinylated with E. coli biotin ligase at the added recognition sequence (biotinylated form used in the ELISA)); assay: SPR (Biacore T200), scFv captured by anti-His antibody, HLA/NY-ESO as analyte, single cycle kinetics
T1 construct: also called HLA/NY-ESO; HLA-A2/NY-ESO
Experimental: With the use of Biacore T200, anti-HLA/NY-ESO scFv was captured as a ligand by the immobilized anti-His antibody, and the antigen was assayed as an analyte. As the antigen, HLA/NY-ESO prepared in 1)-1 was used. The anti-His antibody (His Capture kit, GE Healthcare) was immobilized on Sensor Chip CM5 (GE Healthcare) in accordance with the instructions of the kit. The anti-HLA/NY-ESO scFv constructs diluted to 0.5 μg/ml in HBS-EP+ (GE Healthcare) to be evaluated were brought into contact therewith at 10 μl/min for 60 seconds for immobilization. Thereafter, the samples were added to the HLA/NY-ESO analytes diluted to various levels with HBS-EP+ at a flow rate of 30 μl/min for 120 seconds and dissociation was assayed for 600 seconds.

[2] = target: T2, HLA-A2/NY-ESO peptide complex presented on cells (human); assay: flow cytometry on peptide-pulsed T2 cells, scFv 100 nM;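 on result: scFv binding read as gMFI and normalized to the level of HLA/peptide complex displayed on T2 cells, with homologous 9-mer peptides used to probe specificity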
T2 construct: whole, on cells; also called HLA/NY-ESO; T2 cells supplemented with the NY-ESO peptide

[3] = target: T3, gp100 (human); assay: as above
T3 construct: cell surface;cell surface complex; also called HLA-A2 / gp100 peptide complex on T2 cells

[4] = target: T4, HLA-A2 / homologous peptide CD163 complex on T2 cells (human); assay: flow cytometry, peptide-pulsed T2 cells
T4 construct: whole, on cells; also called T2 cells supplemented with homologous peptide CD163

[5] = target: T5, HLA-A2 / homologous peptide DOLPP1 complex on T2 cells (human); assay: flow cytometry, peptide-pulsed T2 cells
T5 construct: whole, on cells; also called T2 cells supplemented with homologous peptide DOLPP1

[6] = target: T6, HLA-A2 / homologous peptide IL20RB complex on T2 cells (human); assay: flow cytometry, peptide-pulsed T2 cells
T6 construct: whole, on cells; also called T2 cells supplemented with homologous peptide IL20RB

[7] = target: T7, HLA-A2 / homologous peptide P2RY8 complex on T2 cells (human); assay: flow cytometry, peptide-pulsed T2 cells
T7 construct: whole, on cells; also called T2 cells supplemented with homologous peptide P2RY8

[8] = target: T8, HLA-A2 / homologous peptide PRKD2 complex on T2 cells (human); assay: flow cytometry, peptide-pulsed T2 cells
T8 construct: whole, on cells; also called T2 cells supplemented with homologous peptide PRKD2

[9] = target: T4, HLA-A2 / homologous peptide CD163 …; assay: flow cytometry on peptide-pulsed T2 cells, scFv 100 nM;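 on result: scFv binding read as gMFI and normalized to the level of HLA/peptide complex displayed on T2 cells, with homologous 9-mer peptides used to probe specificity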
Experimental: (§1) The cells were washed 2 times in PBS containing 5% FBS, immobilized with Mildform 10 N (FUJIFILM Wako Pure Chemical Corporation) overnight, and resuspended in PBS containing 5% FBS. The cell suspensions were subjected to detection using a flow cytometer (CantoII, Becton Dickinson). […] The standardized gMFI indicating the binding affinity of each scFv standardized with the amount of the HLA/peptide complex on the T2 cells was determined in accordance with the following equation.
(§2) The 9-mer peptide shown in FIG. 2A was selected as a homologous peptide for evaluation of binding specificity of anti-HLA/NY-ESO scFv. […] The standardized gMFI indicating the binding affinity of each scFv standardized with the amount of the HLA/peptide complex on the T2 cells was determined in accordance with the following equation.

[10] = target: T5, HLA-A2 / homologous peptide DOLPP1 …; assay: as above
Experimental: as §1, §2

[11] = target: T6, HLA-A2 / homologous peptide IL20RB …; assay: as above
Experimental: as §1, §2

[12] = target: T2, HLA-A2/NY-ESO peptide complex presented …; assay: as above; remark: listed apart in the source
Experimental: as §1, §2

[13] = target: T3, gp100; assay: as above; remark: listed apart in the source
Experimental: as §1, §2

[14] = target: T7, HLA-A2 / homologous peptide P2RY8 …; assay: as above
Experimental: as §1, §2

[15] = target: T8, HLA-A2 / homologous peptide PRKD2 …; assay: as above
Experimental: as §1, §2

B1: NYA-0001 (scFv)
scFv: GEVQLVESGGGVVQPGRSLTPSCSASGFSIRSYDIHWVRQAPGKGLEWVATISYDGSQKYFADSVKGRFTIFRDESENMVYLQMSGLRVEDTAVYHCARGSSGHYEAFDIWGQGTMVTVSSGGGGSGGGGSGGGGSQSVLTQPPSVSAAPGQKVTISCSGSSSNIGNNYVSWYQQLPGTAPKLLIYDNNKRPSGIPDRFSGSKSGTSATLGITGLQTGDEADYYCGTWDSSLSAPWVFGGGTKVTVLGAAAGAGGDYKDDDDKGAAAHHHHHH
notes: also called NYA-0001 tag adduct; NY-R119 expressed in a cultured mammalian cell
[1]
  Kd: 33.8 nM
[2]
  standardized gMFI: 5.75
[3]
  standardized gMFI: 0.43
[4]
  binding result: no binding (tested: 100 nM)
[5]
  binding result: no binding (tested: 100 nM)
[6]
  binding result: no binding (tested: 100 nM)
[7]
  binding result: no binding (tested: 100 nM)
[8]
  binding result: no binding (tested: 100 nM)
[9]
  standardized gMFI: 0.48
[10]
  standardized gMFI: 0.37
[11]
  standardized gMFI: 0.42
[12]
  standardized gMFI: 5.12
[13]
  standardized gMFI: 0.31
[14]
  standardized gMFI: 0.73
[15]
  standardized gMFI: 0.33

B2: NYA-1163 (scFv)
scFv: GEVQLVESGGGVVQPGRSLTPSCSASGFSIRSYDIHWVRLAPGKGLEWVATISYDGSQKYFADSVKGRFTIFRDESENMVYLQMSGLRVEDTAVYHCARGSSGHYEAFDIWGQGTMVTVSSGGGGSGGGGSGGGGSQSVLTQPPSVSAAPGQKVTISCSGSSSNIGNNYVSWYQQLPGTAPKLLIYDNNKRPSGIPDRFSGSKSGTSATLGITGLQTGDEADYYCGTWDSSLSAPWVFGGGTKVTVLGAAAGAGGDYKDDDDKGAAAHHHHHH
[1]
  Kd: 13 nM
[2]
  standardized gMFI: 3.67
[3]
  standardized gMFI: 0.44
[4]
  binding result: no binding (tested: 100 nM)
[5]
  binding result: no binding (tested: 100 nM)
[6]
  binding result: no binding (tested: 100 nM)
[7]
  binding result: no binding (tested: 100 nM)
[8]
  binding result: no binding (tested: 100 nM)
[9]
  standardized gMFI: 0.46
[10]
  standardized gMFI: 0.36
[11]
  standardized gMFI: 0.41
[12]
  standardized gMFI: 4.21
[13]
  standardized gMFI: 0.3
[14]
  standardized gMFI: 0.69
[15]
  standardized gMFI: 0.31

B3: NYA-1143 (scFv)
scFv: GEVQLVESGGGVVQPGRSLTPSCSASGFSIRSYDIHWVRLAPGKGLEWVATISYDGSQKYFADSVKGRFTIFRDESENMVYLQMSGLRVEDTAVYHCARGSSGHYEAFDIWGQGTMVTVSSGGGGSGGGGSGGGGSQSVLTQPPSVSAAPGQKVTISCSGSSSNIGNWYVSWYQQLPGTAPKLLIYDNNKRPSGIPDRFSGSKSGTSATLGITGLQTGDEADYYCGTWDSSLSAPWVFGGGTKVTVLGAAAGAGGDYKDDDDKGAAAHHHHHH
[1]
  Kd: 1 nM
[2]
  standardized gMFI: 12.9
[3]
  standardized gMFI: 0.41
[4]
  binding result: no binding (tested: 100 nM)
[5]
  binding result: no binding (tested: 100 nM)
[6]
  binding result: no binding (tested: 100 nM)
[7]
  binding result: no binding (tested: 100 nM)
[8]
  binding result: no binding (tested: 100 nM)
[9]
  standardized gMFI: 0.46
[10]
  standardized gMFI: 0.37
[11]
  standardized gMFI: 0.42
[12]
  standardized gMFI: 13.4
[13]
  standardized gMFI: 0.3
[14]
  standardized gMFI: 0.69
[15]
  standardized gMFI: 0.32

B4: NYA-1154 (scFv)
scFv: GEVQLVESGGGVVQPGRSLTPSCSASGFSIRSYDMHWVRQAPGKGLEWVATISYDGSQKYFADSVKGRFTIFRDESENMVYLQMSGLRVEDTAVYHCARGSSNHYEAFDIWGQGTMVTVSSGGGGSGGGGSGGGGSQSVLTQPPSVSAAPGQKVTISCSGSSSNIGNNYVSWYQRLPGTAPKLLIYDNNKRPSGIPDRFSGSKSGTSATLGITGLQTGDEADYYCGAWDSSLSAPWVFGGGTKVTVLGAAAGAGGDYKDDDDKGAAAHHHHHH
[2]
  standardized gMFI: 9.98
[3]
  standardized gMFI: 0.46
[9]
  binding result: no binding (tested: 100 nM)
  standardized gMFI: 0.54
[10]
  binding result: no binding (tested: 100 nM)
  standardized gMFI: 0.46
[11]
  binding result: no binding (tested: 100 nM)
  standardized gMFI: 0.51
[12]
  standardized gMFI: 13.8
[13]
  standardized gMFI: 0.31
[14]
  binding result: no binding (tested: 100 nM)
  standardized gMFI: 0.65
[15]
  standardized gMFI: 2.72

B5: NYA-2023 (scFv)
scFv: GEVQLVESGGGVVQPGRSLTPSCSASGFSIRSYDIHWVRQAPGKGLEWVATISYDGSQKYFADSVKGRFTIFRDESENMVYLQMSGLRVEDTAVYHCARGSSGHYEAFDIWGQGTMVTVSSGGGGSGGGGSGGGGSQSVLTQPPSVSAAPGQKVTISCSGSSSNIGNWYVSWYQQLPGTAPKLLIYDNNKRPSGIPDRFSGSKSGTSATLGITGLQTGDEADYYCGTWDSSLSAPWVFGGGTKVTVLGAAAGAGGDYKDDDDKGAAAHHHHHH
[1]
  Kd: 2.4 nM
[2]
  standardized gMFI: 8.85
[3]
  standardized gMFI: 0.4
[4]
  binding result: no binding (tested: 100 nM)
[5]
  binding result: no binding (tested: 100 nM)
[6]
  binding result: no binding (tested: 100 nM)
[7]
  binding result: no binding (tested: 100 nM)
[8]
  binding result: no binding (tested: 100 nM)
[9]
  standardized gMFI: 0.48
[10]
  standardized gMFI: 0.42
[11]
  standardized gMFI: 0.42
[12]
  standardized gMFI: 10.1
[13]
  standardized gMFI: 0.3
[14]
  standardized gMFI: 0.7
[15]
  standardized gMFI: 0.42

B6: NYA-2027 (scFv)
scFv: GEVQLVESGGGVVQPGRSLTPSCSASGFSIRSYDIHWVRQAPGKGLEWVATISYDGSQKYFADSVKGRFTIFRDESENMVYLQMSGLRVEDTAVYHCARGSSGHYEAFDIWGQGTMVTVSSGGGGSGGGGSGGGGSQSVLTQPPSVSAAPGQKVTISCSGSSSNIGNNYVSWYQQLPGTAPKLLIYDNNKRPSGIPDRFSGSKSGTSATLGITGLQTGDEADYYCGSWDSSLSAPWVFGGGTKVTVLGAAAGAGGDYKDDDDKGAAAHHHHHH
[1]
  Kd: 11.2 nM
[2]
  standardized gMFI: 5.75
[3]
  standardized gMFI: 0.41
[4]
  binding result: no binding (tested: 100 nM)
[5]
  binding result: no binding (tested: 100 nM)
[6]
  binding result: no binding (tested: 100 nM)
[7]
  binding result: no binding (tested: 100 nM)
[8]
  binding result: no binding (tested: 100 nM)
[9]
  standardized gMFI: 0.51
[10]
  standardized gMFI: 0.39
[11]
  standardized gMFI: 0.42
[12]
  standardized gMFI: 7.25
[13]
  standardized gMFI: 0.31
[14]
  standardized gMFI: 0.7
[15]
  standardized gMFI: 0.32

B7: NYC-0003 (scFv, not shown: small tags and cut ends)
scFv: EVQLLESGGGLVQPGGSLRLSCAASGFTFSTYQMSWVRQAPGKGLEWVSGIVSSGGSTAYADSVKGRFTISRDNSKNTLYLQMNSLRAEDTAVYYCAGELLPYYGMDVWGQGTTVTVSSGGGGSGGGGSGGGGSQSELTQPRSVSGSPGQSVTISCTGTSRDVGGYNYVSWYQQHPGKAPKLIIHDVIERSSGVPDRFSGSKSGNTASLTISGLQAEDEADYYCWSFAGSYYVFGTGTDVTVL
notes: also called 3M4E5 scFv; NYC-0003 tag adduct
[1]
  Kd: 8.1 nM
[2]
  standardized gMFI: 3.74
[3]
  standardized gMFI: 0.39
[9]
  standardized gMFI: 1.08
[10]
  standardized gMFI: 0.38
[11]
  standardized gMFI: 0.43
[12]
  standardized gMFI: 5.22
[13]
  standardized gMFI: 0.32
[14]
  standardized gMFI: 2.01
[15]
  standardized gMFI: 1.53

B8: NYC-0004 (scFv, not shown: small tags and cut ends)
scFv: EVQLLESGGGLVQPGGSLRLSCAASGFTFSTYQMSWVRQAPGKGLEWVSGIVSSGGSTAYADSVKGRFTISRDNSKNTLYLQMNSLRAEDTAVYYCAGELLPYYGMDVWGQGTTVTVSSGGGGSGGGGSGGGGSQSELTQPRSVSGSPGQSVTISCTGTERDVGGYNYVSWYQQHPGKAPKLIIHDVIERSSGVPDRFSGSKSGNTASLTISGLQAEDEADYYCWSFAGGYYVFGTGTDVTVL
notes: also called T1 scFv; NYC-0004 tag adduct
[1]
  Kd: 2.8 nM
[2]
  standardized gMFI: 6.02
[3]
  standardized gMFI: 0.37
[9]
  standardized gMFI: 0.49
[10]
  standardized gMFI: 0.39
[11]
  standardized gMFI: 0.43
[12]
  standardized gMFI: 9.19
[13]
  standardized gMFI: 0.32
[14]
  standardized gMFI: 1.98
[15]
  standardized gMFI: 3.41
